According to PMC10074561:
pKd: −log10 of the molar value.

How the values were obtained:
TASK3 [1] = target: TASK3 (UniProt Q9NPC2); assay: fluorescence polarisation; fluorescence anisotropy; 14-3-3 titrated in the presence of 10 nM labelled TASK3; KD fitted here with a one-to-one equilibrium model; data (Dataset S1) from earlier work
TASK3 [2] = target: TASK3 (UniProt Q9NPC2); assay: fluorescence polarisation; 2D fluorescence anisotropy titrations of 14-3-3 at varying concentrations of fusicoccin-A, 10 nM labelled TASK3; fitted here with a ternary equilibrium model, KD,I fixed at 4.05 μM; data (Dataset S2) published before

UniProt Q9NPC2, sequence (Q9NPC2 whole entry): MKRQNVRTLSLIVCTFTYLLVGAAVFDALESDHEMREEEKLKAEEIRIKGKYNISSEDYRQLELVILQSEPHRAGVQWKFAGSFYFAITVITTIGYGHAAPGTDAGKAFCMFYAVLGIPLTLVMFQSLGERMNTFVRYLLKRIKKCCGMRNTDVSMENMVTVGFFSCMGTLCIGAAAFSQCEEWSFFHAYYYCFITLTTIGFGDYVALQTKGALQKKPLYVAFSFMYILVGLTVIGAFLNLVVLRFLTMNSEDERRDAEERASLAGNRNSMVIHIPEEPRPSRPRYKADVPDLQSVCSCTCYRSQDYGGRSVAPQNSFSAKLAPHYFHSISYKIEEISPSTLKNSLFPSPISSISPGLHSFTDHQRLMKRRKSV

pKd (TASK3 [1]): 5.39
cooperativity factor α with fusicoccin-A (TASK3 [2]): 1340
Substance: 14-3-3 protein (from UniProt P31947 1-248) (natural protein)
